From patent US20110236874A1, “METHOD FOR FORMATION OF RENAL TUBULES” (priority 2008, published 2011)
Entries after “also recorded” stand apart in the source; their conditions may differ.

Legend:
[1] = tested on: primary human renal proximal tubule cells (HPTCs); assay: Quantification of α-SMA expression by immunoblotting; assay type: cell-based; conditions: HPTCs on laminin + collagen IV treated with BMP-7 100 ng/ml; control uncoated TCP; FIG. 3
Method: Immunoblotting: For immunoblotting, cells were lyzed in 100 μl of heated NuPage LDS sample buffer (Invitrogen). Samples were collected, heated at 95° C. and centrifuged at 10,000 g for 2 minutes to pellet cell debris. Protein concentrations of the supernatants were measured with a NANODROP™ spectrophotometer (Biofrontier, Singapore). Appropriate amounts of the supernatants were loaded onto a NuPage precast gel (4-12%, Invitrogen) with the size marker PAGE Ruler Plus (Fermentas, Hanover, Md., USA). Proteins were transferred to iBlot membranes after electrophoresis. […]
After washing, the membranes were incubated with 0.2 μl/ml of both peroxidase-conjugated sheep anti-mouse antibody and donkey anti-rabbit antibody. […] The films were scanned and analyzed using Adobe Photoshop CS3.
FIG. 3. Quantification of α-SMA expression by immunoblotting. […] Proteins were extracted in each case from 3 replicas, and the extract obtained from each sample was loaded onto a separate lane of the gel. α-SMA (lower bands, 42 kD) and α-tubulin (loading control, upper bands, 50 kD) were detected by immunoblotting. […] (B) The intensities of the bands shown in (A) were determined. […]

[2] = tested on: primary human renal proximal tubule cells (HPTCs); assay: α-SMA immunostaining (myofibroblasts) in HPTC cultures on ECM coatings; assay type: cell-based; conditions: BMP-7 100 ng/ml constantly in the medium
Method: Immunostaining, histochemistry, and imaging: Immunostaining was performed as described in Sadoni et al. J Cell Biol 1999; 146(6): 1211-1226. The following primary antibodies were used: rabbit anti-ZO-1 (zonula occludens-1, Invitrogen, Carlsbad, Calif., USA) and mouse anti-α-smooth muscle actin (SMA) (Abcam, Cambridge, UK). Alexa Fluor 488-conjugated anti-rabbit (Invitrogen) and TRITC-conjugated anti-mouse (Invitrogen) secondary antibodies were applied. After immunostaining, cell nuclei were stained with DAPI and cells were mounted with vectashield (Vector Laboratories, Burlingame, Calif.) for microscopy. Histochemical detection of γGTP activity and controls were performed as described in Ryan et al. Kidney Int 1994; 45(1):48-57. Imaging was performed with a Zeiss AxioObserver Z1 microscope (Carl Zeiss, Jena, Germany) using the Zeiss AXIOVISION™ imaging software.
Disintegration of tight junctions after a certain time point is indicated. […]
Based on these observations, the question arose why the monolayer always disintegrated and could not be maintained for longer periods. […] Therefore, the presence of α-SMA-positive cells was monitored in the final experimental series. α-SMA is expressed in myofibroblasts but not in epithelial cells, and was detected in these experiments together with ZO-1 by co-immunostaining (FIG. 2).

B1: BMP-7: Bone morphogenetic protein (BMP)-7 (Sigma), added at 100 ng/ml (protein, UniProt P18075 293-431, looked up)
Bone morphogenetic protein 7: STGSKQRSQNRSKTPKNQEALRMANVAENSSSDQRQACKKHELYVSFRDLGWQDWIIAPEGYAAYYCEGECAFPLNSYMNATNHAIVQTLVHFINPETVPKPCCAPTQLNAISVLYFDDSSNVILKKYRNMVVRACGCH
α-SMA expression by immunoblotting (ratio to α-tubulin) versus control [1]: significant differences compared to the control; also recorded: significantly (p 0.002) higher
appearance of α-SMA-expressing cells and tight junction formation [2]: high numbers of α-SMA-expressing cells, associated with poor formation of tight junctions
